Measurements: the nanobody polyreactivity screen of Harvey et al. (2022)

Assay: yeast display, Sf9 membrane polyspecificity reagent, FACS + sequencing; frameworks hold sequencing errors
Outline: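 Nanobodies from a synthetic yeast display library (Saccharomyces cerevisiae BJ5465), induced 36–48 hours with galactose, were stained 1 hour at 4 °C with 10% biotinylated, detergent-solubilized Sf9 membrane reagent, enriched on streptavidin microbeads, then FACS-sorted. Anti-HA (expression) and streptavidin (reagent binding) fluorescence set low and high (top ~1%) gates. Polyreactivity labels come from the gate of origin. Genes were colony-PCR amplified, MiSeq 2 × 250 sequenced and filtered by CDR length.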

| Sequence | polyreactivity (PSR sort gate) |
| --- | --- |
| QVQLVESGGGLVQAGGSLRLSCAASGFTIRNNAMGWYRQAPGKERELVAAISYSGGSTYYADSVKGRFTISRDNAKNTVYLQMNSLKPEDTAVYYCNRRRWSYLEYDYWGQGTQVTVSS | low polyreactivity |
| QVQLVESGGGLVQAGGSLRLSCAASGSIFGYYAMGWYRPATGKEREFVAAITSSGGSTYYADSVKGRFTISRDNAKNTVYLQMNSLKPEDTAVYYCNAGAWQLYWYRYEYWGQGTQVTVSS | high polyreactivity |
| QVQLVESGGGLVQAGGSLRLSCAASGLTIQLYAMGWYRQAPGKERELVAAISGSGGRTYYADSVKGRFTISRDNAKNTVYLQMNSLKPEDTAVYYCAARPGSGRSYTSDYWGQGTEVTVSS | high polyreactivity |
| QVQLVESGGGLVQAGGSLRLSCAASGFIFAYYAMGWYRQEPGKERELVAAISSSGSTNYADSVKGRFTISRDNAKNTVYLQMNSLKPEDTAVYYCAADRVGGTPQAYVPSQFDYWGQGTQVTVSS | low polyreactivity |
| QVQLVESGGGLVQAGGSLRLSCAASGRTFGGNAMGWYRQAPGKERELVAAISLSGGTTYYADSVKGRFTISRDNAKNTVYLQMHSLKPEDTAVYYCAARFKSVDYVQYYYWGQGTQVTVSS | low polyreactivity |
| QVQLVESGGGLVQEGGSLRLSCAASGRILSPNAMGWYRQAPGKERELVATITRSGGSTYYADSVKGRFTISRDNAKNTVYLQMNSLKPEDTAVYYCAKLHTYPWIHDYWGQGTQVTVSS | low polyreactivity |
| QVQLGESGGGLVQAGGSLRLSCAASGSIFTGNAMGWYRQAPGKERELVAAITNGGITNYADSVKRRFTISRDNAKNTFYLQMNSLKPEDTAVYYCAADYVDFYSFRRFDYWGQGSQVTVSS | low polyreactivity |
| QVQLVESGGGLVQAGGSLRLICAASGFIFASNAMGWYRQAPGTERELVASITRGGTTKYADSVKGRFTISRDNAKNTVYLQMNSLKPEDTAVYYCAKRYVRFPWRMDYWGQGTQVTVSS | high polyreactivity |
| QVQLVESGGGLVQAGGSLRLSCAASGFTLIDYAMGWYRQAPGKERELVAAISGSGGRTYYADSVKGRFTISRDNAKNTVYLQMNSLKPEDTAVYYCAAGRRHVYKRRRYDYCGQGTQVTVSS | high polyreactivity |
| QVQLVESGGGLVQAGGSLRLSCAASGRIFGINGMGWYRQAPGKERELVAAITWIGGRTYYADSVKGRFTISRDNAKNTVYLQMNSLKPEDTAVYYCNAVYTQRFATYRRYDYWGQGTQVTVSS | high polyreactivity |
| QVQLVESGGGLVQAGGSLRLSCAASGRTFVSNAMGWYRQAPGKERELVAAISWSGSRTYYADSVKGRFTISRDNAKNTVYLQMNSLKPEDTAVYYCAAAKPKKSRGSAYEYWGQGTQVTVSS | high polyreactivity |
| HVQLVESGGGLVQAGGSLRLSCAASGSIFVPYTMGWSRQAPGKERELVAAINSSDDSKFYADSVKGRFTISRDNAKNPVYLQMNSLKPEDTAVYYCAASYYYTIGPYFRKFDWGQGTQVTVSS | low polyreactivity |
| QVQLVESGGGLVQAGGSLRLSCAASGRIFYKNVMVWYRQAPGKERELVAAISTSTGRTYYADSVKGRFTISRDNAKNTVYLEMNSLKPEDTAVYYCNAVRGHTNGVLYRYDYWGQGTQVTVSS | high polyreactivity |
| QVQLVESGGGLVQAGGSLRLSCAASGITFYDYAMGWYRQAPGKERELVAAISFSGSRTYYADSVKGRFTISRDIAKNTVYLQMNSLKPEDTAVYYCAASQARNYKIYDYWGQGTQVTVSS | high polyreactivity |
| QVQLVESGGGLVQAGGSLRLSCAASGRTFYSYAMGWYRQAPGKERELVAAINTSGGRTHYADSVKGRFTISRDNAKNTVYLQMNCMKPEDTAVYYCAKLARSGTLTYYYWGQGTQVNVSS | high polyreactivity |
| QVQLVESGGGLVQAGGSLGLSCAASGSIFRGYAMGWYIQAPGKERELVAAITSSGGSTNYADSVKGRFTISRDNAKNTVYLQMNSLKPEDTAVYYCAAGVIREKYYIWSDYEYDYWGQGTQVNVSS | low polyreactivity |
| QVQLVESGRGLVPAGGSLRLSCAASGSTFFKNAMGWYRQAPGNERELVAAITWSGDRTYADSVKGRFTISRDNAKNTVYLQMNSLKPEDTAVYYCNVDITGYEDDEWGQGTQVTVSS | low polyreactivity |
| QVQLVESGGGLVQAVGSLRLSCAASGRTFNLYAMGWYRQAPGKERELVAAITRRGGRTYYADSVKGRFTISRDNAKNTVYLQMNSLKPEDTAVYYCAARGYYGKFSGSGYWGQGTQVTVSS | high polyreactivity |
| QVQLVESGGGLVQAGGSLRLSCAASGFIFDYYAMGWYRQAPGKERELVAAITSRSGSTYYADSVKGRFTISRDNAKNTVYLQMNSLKPEDTAVYYCSRRFKYGSTAWRFYYWGQGTQVTVSS | high polyreactivity |
| QVQLVESGGGLDQAGGSHRLSCAASGFTFSGYAMGWYRQAPGTESELVAAMTRRGGSTYYADSVKGRFTISRDNAKNTVYLHLNSLKPEDTAVYYCAADSGYPWELDYWGQGTQVTVSS | low polyreactivity |
| QVQLVESGGGLVQAGGSLRLSCAASGGTFYFYAMGWYRQAPGKERELVATITRGGSTYYADSVKGRFTISRDNAKNTVYLQMNSLKPEDTAVYYCAARQYSRRRSPVSTWYYYWGQGTQVTVSS | high polyreactivity |
| QVQLVESGGGLVQAGGSLRLSCAASGRIFRVNAMGRYRQAPGKERELVAAITRSGGSTYYADSVKGRFTISRDNAKNTVYLQRNSLKPEDTAVYYCNADPRLRQTRDYWGQGTQVTVSS | high polyreactivity |

| Sequence | polyreactivity (PSR sort gate) |
| --- | --- |
| QVQLVESGGGLVQAGGSLRLSCAASGSIFSSYAMGWYRQAPGKERELVAAITTRGDSTRYADSVKGRFTISRDNAKNTVYLQMNSLKPEHTAVYYCNARYRDPYWDSGYWGQGTQVTVSS | high polyreactivity |
| QVQLVESGGGLVQAGGSLRLSCAASGFLFRYYTMGWYRQAPGKERDLVAVITRGGSTYYADSVKGRFTISRDNAKNTVYLQMNSLKPEDTAVYYCAAVRTKVWRGPEMDYWGQGTQVTVSS | high polyreactivity |
| QVQLVESGGVLVQAGGSLRLSCAASGRTSKFYAMGWYRPAPGKERELVARITYSGGSTTYADSVKGRFTISRDNAKNTVYLQMNSLKPDDTAVYYFAITSQWLRRYYYWGQGTQVTVSS | high polyreactivity |
| QVQLVESGGGLVQAGGSLRLSCAASGRIFGHNAMGWYRQAPGKERELVARISSTGSTKYADSVKGRFTISRDNAKNTVYFQMNSLKPEDTAVYYCAAVDRLRSIRYDYWGQGTQVTVSS | high polyreactivity |
| QVQHVESGGGLVQAGGSLRLSCAASGRIFPFNAMGCYRQAPGKETEFVAAIRLSGTRTYYADSVKGRFTISRDNAKNTVYLQMNCLNPEDTAVYYCAAKFSGHYYNYDYWGQGTQVTVSS | high polyreactivity |
| QVQLVESGGGLVQAGGSLRLSCAASGNILATNCMGWYRQAPGMERELVAAITFSGDTTYYADSVKGRFTISRDNAKNTVYLQMNSLKPEDTAVYYCNAVSFIVNGGYDGDYWGQGTQVTVSS | low polyreactivity |
| QVQLVESGGGLVQAGGSLRLSCAASGRIFWPYTMGGYRQAPGKETELVAVITYSGGSTYYADSVKGRFTISRDNAKNTVYLQMNSLIPEDTEVYYCNAGIRFYLHAHGYYWGQGTQVTVSS | high polyreactivity |
| QVQLVESGGGLVQAGGSLRLSCAASGRIFWGYSMGWYRQAPGKERELVAAITSGGRTYYADSVKGRFTISRDNAKNTVYLQMNSLKPEDTAVYYCAAVYVPYYWLGRSRGLDYWGQGTQVTVSS | high polyreactivity |
| QVQLVESGGGLVQAGGSLRLSCAASGRTFYQYGMGWYRQAPGKERELVAAISDSGGGTYYADSVKGRFTISRDNAKHTVYLQMNSLKPEDTAVYFCAATYVGPRRRYYYWGQGTQVTVSS | high polyreactivity |
| QVQLVESGGGLVQAGGSLRLSCAASGSIFVNNAMGWYRQAPGKERELVAAISSRSSRTFYADSVKGRFTISRDNAKNTVYLQMNSLKPDDNAVFYCAVNNRAPDGEYWGLGTQVTVSS | high polyreactivity |
| QVQLVESGGGLVQAGGSLRLSCAASGRTYTYAMGWYRQAPGKERELVAGISRRGGNTYYADSVKGRFTISRDNAKNTVYLQMNSLKPEDTAVYYCAAVSFSASSYTYEYWGQGTQVTVSS | high polyreactivity |
| QVQLVESGGGLVQAGGSLRLSCAASGRTFRYNAMGWYRQAPGKERELVASITSGGSTNYADSVKGRFTISRDNAKNTVYLQMNSLIPEDTAVYYCAADERRPYWQHSIGSGRPFDYWGQGTQVTVSS | low polyreactivity |
| RVQLVESGGGLVQAGGSLRLSCAASGSIFRGYAMGWYRQAPGKERGLVAAITSGGSTNYADSVKGRFTISRDNAKNTVYLQMNSLKPEDTAVYYCAKDLALVAPLSDYWGQGTQVTVSS | low polyreactivity |
| QVHLVESGGGLVQAGGSLRLSCAASGIIFDEYAMGWYSQAPGKERELVAAINWSGGITYYADSVKGRFTISRDNAKNTVYLQMNSLKPEDTAVYYCNKDPLVFDYWGQGTQVTVSS | low polyreactivity |
| QVQLVESGGGLVQAGGSLRLSCAASGSTLYVNAMGLYRQAPGKERELVAAISWRGDRTYYADSVKGRFTISRDNAKNNVYLQMNSLKPEDTAVYYCAKDYWWKGTTLYYNLDYWGQGTQVTVSS | high polyreactivity |
| QVQLVESGGGFVQAGGSLRLSCAASGRTFIYNAMGWYRQAPGKERELVARISSGGGNTYYADSVKGRFTISRDNAKNPVYLQINSLKPEDTAVYYGAKGWRPSFSYYWGQGTQVTVSS | high polyreactivity |
| QVQLVESGGGLVQAGGSLRISCAASGRTFWYYAKGWDRQAPGKEREFVAAISWSGGSTYYADSVKGRFTISRDNAKNTVYLQMNSLKPEDTAVSYCAADRYDSSQFYYWGQGTQVTVSS | low polyreactivity |
| QVQLVESGGGLVQAGGSLRLSCAASGRTFQGYAMGWYRQATGKERELVAAISRSGGRTYYADSVKGRFTISRDNAKNTVYLQMNSLKPEDTAVYYCATDAFRDYGYWGQGTQVTVSS | high polyreactivity |
| QVQLVESAGGLVQAGGSLRLSCAASGRIFGRYAMGWYRQAPGKERELVAAITSGTSTYYADSVKGRFTISRDNAKNTVYLQMNSLKPEDTAVYYCNADYPYYPYRENYWGQGTQVTVSS | low polyreactivity |
| QVQLVESGGGLVQAGGSLRLSCAASGSTFYRYAMGWYRQAPGKERELVAAITRTGGSTYADSVKGRFTISRDNAKNTVYLQMNSLKPEDTAVYYCAVQRYYVSSISPFYYWGQGTQVTVSS | low polyreactivity |
| QVQLVESGGGLVQAGGSLRLSCAASGNIFPAYAMGWYRQAPGKERELVAAISKSGGRTYYAESVKGRFTISRDNAKNTVYLQMNSLKQEDTAVYYALLTVRRAVPYSVRYDYWGQGTQVTVSS | high polyreactivity |
